We go through one molecule from article PMC4365997 (Journal of cell science, 2008).

For the test, the target named is T1, recombinant Rab11a (UniProt P62491 1-216).
T1 sequence (looked up): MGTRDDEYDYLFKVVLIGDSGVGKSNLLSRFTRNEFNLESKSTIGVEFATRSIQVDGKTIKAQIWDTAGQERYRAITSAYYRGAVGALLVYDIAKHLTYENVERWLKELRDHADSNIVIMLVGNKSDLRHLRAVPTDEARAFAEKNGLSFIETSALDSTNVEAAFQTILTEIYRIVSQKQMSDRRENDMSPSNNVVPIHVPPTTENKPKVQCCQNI
In words: pull-down.

B1: Rip11/FIP5(490-652) (domain or fragment, UniProt Q9BXF6 490-652, looked up)
chain: ILGASPHHSSSGEEKAKSSWFGLREAKDPTQKPSPHPVKPLSAAPVEGSPDRKQSRSSLSIALSSGLEKLKTVTSGSIQPVTQAPQAGQMVDTKRLKDSAVLDQSAKYYHLTHDELISLLLQRERELSQRDEHVQELESYIDRLLVRIMETSPTLLQIPPGPP
On to B1, for which the binding result was “binds”.
